Experimental data from US20240148890A1 (SUTRO BIOPHARMA, published 2024).

Target: folate receptor alpha (FOLR1) (human, UniProt P15328 25-234)
Assay: cell-based or functional assay

Sequence of folate receptor alpha (FOLR1) (P15328 25-234 limits assumed): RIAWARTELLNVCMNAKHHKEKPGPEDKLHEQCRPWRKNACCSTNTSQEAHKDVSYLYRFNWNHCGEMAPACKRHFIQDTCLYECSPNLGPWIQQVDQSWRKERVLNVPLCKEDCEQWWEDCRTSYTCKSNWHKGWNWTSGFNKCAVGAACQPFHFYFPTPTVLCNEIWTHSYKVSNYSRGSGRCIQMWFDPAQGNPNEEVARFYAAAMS

B1: Conjugate P (FOLR1-directed site-specific antibody-drug conjugate; IgG antibody with VH region SEQ ID NO: 362 and VL region SEQ ID NO: 367, conjugate formula … (antibody, V domains shown)
VH: EVQLVESGGGLVQPGGSLRLSCAASGFNIRTQSIHWVRQAPGKGLEWIGDIFPIDGITDYADSVKGRFTISADTSKNTAYLQMNSLRAEDTAVYYCARGSWSWPSGMDYYLDYWGQGTLVTVSS
VL: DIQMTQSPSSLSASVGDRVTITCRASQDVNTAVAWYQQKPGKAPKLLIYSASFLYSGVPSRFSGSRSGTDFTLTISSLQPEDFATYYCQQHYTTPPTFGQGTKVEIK
modifications: para-azidomethylphenylalanine residues substituting for Y180 and F404 (printed as 'of each VH region'; elsewhere given as heavy chain positions), each linked to the hemiasterlin linker-payload of conjugate formula P (n=4)
What does the source list for B1?
in vitro cytotoxicity IC50 against CBF/GLIS-transduced CB HPSCs (which upregulate FOLR1): 4.2 nM; in vitro cytotoxicity IC50 against MV4;11 AML cell line engineered to express FOLR1 (MV4;11 FOLR1+): 0.1 nM
